Ends that are not written are not given here. Y‑shaped‑mPEG40KD = Y-shaped methoxy-PEG of 40 kDa attached to the Lys side chain; mPEG40KD = methoxy-PEG of 40 kDa
How the values were obtained:
[1] = target: T1, amylin receptor of rat nucleus accumbens membranes (rat); assay: competition with 125I-rat amylin, rat nucleus accumbens membranes
T1 construct: whole, on cells; native tissue membranes; also called RNA membranes

[2] = target: T2, human amylin receptor 3 (human, UniProt P30988 25-474; O60896 24-148); assay: competition with 125I-rat amylin, human AMY3 receptor
T2 construct: whole, on cells; also called AMY3; Human AMY3
T2 sequence (looked up) 1: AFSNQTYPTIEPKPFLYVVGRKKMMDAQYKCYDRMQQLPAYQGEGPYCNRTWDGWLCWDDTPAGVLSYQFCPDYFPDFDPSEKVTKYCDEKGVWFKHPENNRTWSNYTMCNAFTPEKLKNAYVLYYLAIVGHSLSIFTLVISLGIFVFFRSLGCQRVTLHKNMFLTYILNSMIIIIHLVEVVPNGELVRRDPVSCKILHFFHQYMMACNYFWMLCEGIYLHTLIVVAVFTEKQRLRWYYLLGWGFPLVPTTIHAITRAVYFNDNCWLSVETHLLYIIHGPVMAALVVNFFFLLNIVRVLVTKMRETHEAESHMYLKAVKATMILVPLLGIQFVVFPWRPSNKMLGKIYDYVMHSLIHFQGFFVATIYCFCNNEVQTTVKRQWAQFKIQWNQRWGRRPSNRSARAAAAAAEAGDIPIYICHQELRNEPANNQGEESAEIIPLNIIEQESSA
T2 sequence (looked up) 2: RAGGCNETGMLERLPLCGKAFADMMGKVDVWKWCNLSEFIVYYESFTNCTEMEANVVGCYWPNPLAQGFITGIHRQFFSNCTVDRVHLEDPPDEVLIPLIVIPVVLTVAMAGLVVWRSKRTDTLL

[3] = target: T2, human amylin receptor 3; assay: cell-based or functional assay
[4] = target: T3, amylin receptor of rat nucleus accumbens membranes (rat); assay: competition with 125I-rat amylin, rat nucleus accumbens membranes
T3 chain 1: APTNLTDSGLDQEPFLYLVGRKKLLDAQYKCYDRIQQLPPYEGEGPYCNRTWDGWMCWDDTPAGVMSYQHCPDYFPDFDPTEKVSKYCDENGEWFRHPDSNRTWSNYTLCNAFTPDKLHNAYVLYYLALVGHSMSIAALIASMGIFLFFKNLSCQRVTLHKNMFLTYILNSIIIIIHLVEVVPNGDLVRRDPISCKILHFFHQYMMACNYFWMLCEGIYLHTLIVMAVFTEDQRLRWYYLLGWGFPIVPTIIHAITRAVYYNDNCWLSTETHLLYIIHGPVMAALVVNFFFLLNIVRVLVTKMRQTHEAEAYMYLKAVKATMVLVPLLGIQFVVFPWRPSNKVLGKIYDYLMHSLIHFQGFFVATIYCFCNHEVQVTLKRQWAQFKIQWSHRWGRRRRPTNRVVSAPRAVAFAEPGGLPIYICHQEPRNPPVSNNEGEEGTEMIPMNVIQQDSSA
T3 chain 2: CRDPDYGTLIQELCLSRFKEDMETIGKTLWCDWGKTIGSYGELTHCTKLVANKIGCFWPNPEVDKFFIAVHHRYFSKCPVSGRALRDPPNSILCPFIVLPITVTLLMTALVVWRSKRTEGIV

| Binder | IC50 [1] | IC50 [2] | Functional EC50, Human AMY3 [3] | IC50 [4] |
| --- | --- | --- | --- | --- |
| CNTATCATQRLANFLVHSSNNFGPK(mPEG40KD)LPPTNVGSNTY-NH2 (ends and bridges not checked, also called Cmpd 77) [[K^26(mPEG40KD)]-Cmpd 60] | 39 nM | 60 nM | 0.078 nM | – |
| CNTATCATQRLANFLK(mPEG 40 kDa)HSSNNFGPILPPTNVGSNTY-NH2 (ends and bridges not checked, also called Cmpd 89) [[K^17(mPEG40KD)]-Cmpd 58] | – | 334 nM | 2.23 nM | – |
| CNTATCATQRLANFLVK(mPEG 40 kDa)SSNNFGPILPPTNVGSNTY-NH2 (ends and bridges not checked, also called Cmpd 90) [[K^18(mPEG40KD)]-Cmpd 58] | – | 238 nM | 0.85 nM | – |
| CNTATCATQRLANFLVHSK(mPEG 40 kDa)NNFGPILPPTNVGSNTY-NH2 (ends and bridges not checked, also called Cmpd 91) [[K^20(mPEG40KD)]-Cmpd 58] | – | 918 nM | 5.51 nM | – |
| CNTATCATQRLANFLVHSSK(mPEG 40 kDa)NFGPILPPTNVGSNTY-NH2 (ends and bridges not checked, also called Cmpd 76) [[K^21(mPEG40KD)]-Cmpd 59] | – | 388 nM | 1.75 nM | 131 nM |
| CNTATCATQRLANFLVHSSNNK(mPEG 40 kDa)GPILPPTNVGSNTY-NH2 (ends and bridges not checked, also called Cmpd 86) [[K^23(mPEG40KD)]-Cmpd 58] | – | 240 nM | 2.82 nM | 611 nM |
| CNTATCATQRLANFLVHSSNNFGPILPPK(mPEG40KD)NVGSNTY-NH2 (ends and bridges not checked, also called Cmpd 87) [[K^30(mPEG40KD)]-Cmpd 58] | – | 685 nM | 4.25 nM | 599 nM |
| CNTATCATQRLANFLVHSSNNFGPILPPTNK(mPEG40KD)GSNTY-NH2 (ends and bridges not checked, also called Cmpd 92) [[K^32(mPEG40KD)]-Cmpd 58] | – | 1000 nM | 24.7 nM | – |
| CNTATCATQRLANFLVHSSNNFGPILPPTNVK(mPEG40KD)SNTY-NH2 (ends and bridges not checked, also called Cmpd 93) [[K^33(mPEG40KD)]-Cmpd 58] | – | 860 nM | 1.69 nM | – |
| CNTATCATQRLANFLVHSSNNFGPILPPTNVGSNK(mPEG40KD)Y-NH2 (ends and bridges not checked, also called Cmpd 96) [[K^36(mPEG40KD)]-Cmpd 58] | – | 984 nM | 3.07 nM | – |
| CNTATCATQRLANFLVHSSNNFGPK(Y‑shaped‑mPEG40KD)LPPTNVGSNTY-NH2 (ends and bridges not checked, also called Cmpd 79) [[K^26(Y-shaped-mPEG40KD)]-Cmpd 60] | 132 nM | 1130 nM | 1.74 nM | – |
| CNTATCATQRLANFLVHSSNK(mPEG 40 kDa)FGPILPPTNVGSNTY-NH2 (ends and bridges not checked, also called Cmpd 85) [[K^22(mPEG40KD)]-Cmpd 58] | – | – | 1.66 nM | 148 nM |
| KCNTATCATQRLANFLVRSSNNLGPVLPPTNVGSNTY-NH2 (ends and bridges not checked, also called Cmpd 49) [rat amylin, KCNTATCATQRLANFLVRSSNNLGPVLPPTNVGSNTY-NH2] | 0.1 nM | – | – | – |
| KCNTATCATQRLANFLVRSSK(mPEG 40 kDa)NLGPVLPPTNVGSNTY-NH2 (ends and bridges not checked, also called Cmpd 69) [[K^21(mPEG40KD)]-Cmpd 51] | – | – | – | 104 nM |
| KCNTATCATQRLANFLVRSSNNLGPVLPPTK(mPEG40KD)VGSNTY-NH2 (ends and bridges not checked, also called Cmpd 73) [[K^31(mPEG40KD)]-Cmpd 55] | – | – | – | 86 nM |
| CNTATCATQRLANFLVRSSNNLGPVLPPTK(mPEG40KD)VGSNTY-NH2 (ends and bridges not checked, also called Cmpd 74) [[K^31(mPEG40KD)]-Cmpd 56] | – | – | – | 75 nM |
| CNTATCATQRLANFLVRSSK(mPEG 40 kDa)NLGPVLPPTNVGSNTY-NH2 (ends and bridges not checked, also called Cmpd 70) [[K^21(mPEG40KD)]-Cmpd 52] | – | – | – | 112 nM |
| CNTATCATQRLANFLVRSSNNLGPK(mPEG40KD)LPPTNVGSNTY-NH2 (ends and bridges not checked, also called Cmpd 72) [[K^26(mPEG40KD)]-Cmpd 54] | – | – | – | 54 nM |

The next lines start with the values.

| IC50 [1] | IC50 [2] | Functional EC50, Human AMY3 [3] | IC50 [4] | Binder |
| --- | --- | --- | --- | --- |
| – | 111 nM | 0.41 nM | 79 nM | CNTATCATQRLANFLVHSSNNFK(mPEG40KD)PILPPTNVGSNTY-NH2 (ends and bridges not checked, also called Cmpd 80) [[K^24(mPEG40KD)]-Cmpd 62] |
| – | 48 nM | 0.086 nM | 31 nM | CNTATCATQRLANFLVHSSNNFGK(mPEG40KD)ILPPTNVGSNTY-NH2 (ends and bridges not checked, also called Cmpd 81) [[K^25(mPEG40KD)]-Cmpd 63] |
| – | 87 nM | 0.2 nM | 51 nM | CNTATCATQRLANFLVHSSNNFGPIK(mPEG40KD)PPTNVGSNTY-NH2 (ends and bridges not checked, also called Cmpd 82) [[K^27(mPEG40KD)]-Cmpd 64] |
| – | 46 nM | 0.2 nM | 53 nM | CNTATCATQRLANFLVHSSNNFGPILK(mPEG40KD)PTNVGSNTY-NH2 (ends and bridges not checked, also called Cmpd 83) [[K^28(mPEG40KD)]-Cmpd 65] |
| – | 47 nM | 0.11 nM | 27 nM | CNTATCATQRLANFLVHSSNNFGPILPK(mPEG40KD)TNVGSNTY-NH2 (ends and bridges not checked, also called Cmpd 84) [[K^29(mPEG40KD)]-Cmpd 66] |
| – | 80 nM | 0.1 nM | 61 nM | CNTATCATQRLANFLVHSSNNFGPILPPTK(mPEG40KD)VGSNTY-NH2 (ends and bridges not checked, also called Cmpd 78) [[K^31(mPEG40KD)]-Cmpd 61] |
| – | 77 nM | 0.034 nM | – | CNTATCATQRLANFLVHSSNNFGPILPPTNVGK(mPEG40KD)NTY-NH2 (ends and bridges not checked, also called Cmpd 94) [[K^34(mPEG40KD)]-Cmpd 58] |
| – | 143 nM | 0.122 nM | – | CNTATCATQRLANFLVHSSNNFGPILPPTNVGSK(mPEG40KD)TY-NH2 (ends and bridges not checked, also called Cmpd 95) [[K^35(mPEG40KD)]-Cmpd 58] |
| – | 74 nM | 0.082 nM | – | CNTATCATQRLANFLVHSSNNFGPK(mPEG40KD)LPPTNVGSNTY-NH2 (ends and bridges not checked, also called Cmpd 88) [[K^26(mPEG40KD)]-Cmpd 58] |

From US20140221282A1 (AstraZeneca / MedImmune, published 2014)
